Residues, ends and D or L forms follow the SMILES beside them.
How the values were obtained:
[1] = target: T1, binding of p85 to HGF/SF receptor (Bos taurus, UniProt P23727); test: Competition of phosphopeptides with p85 for association with immobilized recombinant HGF/SF receptor (in vitro kinase assay readout); parameters: species or system human; conditions: phosphopeptide 10 μM; p85 from Sf9 lysates; FIG. 1
T1 construct: made in house; host or cells: Sf9 insect cells (baculovirus), for both p85 and the receptor
Method: FIG. 1. Inhibition of binding of p85 to HGF/SF receptor by tyrosine-phosphorylated peptides. Recombinant HGF/SF receptor was purified by immunoprecipitation from baculovirus-infected Sf9 cells using a rabbit polyclonal antiserum and phosphorylated with cold ATP. Lysates of Sf9 cells expressing p85 were pre-incubated with each of the phosphopeptides (10 μM). The lysates were then allowed to associate with immobilized recombinant HGF/SF receptors. Following association the complex was washed and receptor-bound p85 was detected by an in vitro kinase assay, as described in Materials and Methods of Example 4. The phosphopeptides are identified by the number of the amino terminal tyrosine.
FIG. 2. Inhibition of binding of p85 to HGF/SF receptor with different concentrations of tyrosine-phosphorylated peptides. The phosphopeptides which efficiently out-competed p85 binding to the HGF/SF receptor (FIG. 1) were used at increasing concentrations (10 nM, 100 nM, 1 μM from left to right) to define their relative affinities for p85. Conditions of the experiment were as in FIG. 1. Phosphopeptide 1365 was used as a negative control for p85 interaction.
In vitro association experiments. Sf9 cells expressing the recombinant HGF/SF receptor (approximately 4×10^6 cells/point) were lysed 36 hours after infection in buffer A (10 mM Tris-HCl buffer pH 7.5, 10% glycerol, 1% Triton X-100, 150 mM NaCl, 5 mM EDTA), supplemented with 0.2 mM phenyl-methylsulfonyl fluoride, 1 μg/ml leupeptin, 0.1 TIU/ml aprotinin and 1 μg/ml pepstatin. Lysates were clarified at 15,000×g at 4° C. for 15 minutes and the supernatants immunoprecipitated after 2 hours incubation with anti-Met antibodies coupled to Protein A-Sepharose. Immunocomplexes were washed three times with buffer A, once with buffer B (10 mM Tris-HCl pH 7.4, 100 mM NaCl, 1 mM EDTA) and once with buffer C (25 mM 4-(2-hydroxyethyl)-1-piperazine-ethanesulfonic acid (HEPES) buffer pH 7.2, 100 mM NaCl, 5 mM MgCl2). Samples were pre-phosphorylated by incubation for 15 minutes at 25° C. in buffer C with 10 μM unlabelled ATP and then washed three times with cold buffer A supplemented with 1 mM sodium ortho-vanadate. Association between the immobilized receptor and the baculovirus-expressed p85 was carried out as previously described (Bardelli, A., et al., Oncogene 7: 1973-1978 (1992)). For the association experiments with the PI 3-kinase holoenzyme three days serum-starved A549 cells (approx. 2×10^6 cells/point) were used as a source of PI 3-kinase. A549 cells were Dounce-homogenized in MOPS buffer (20 mM 3-(N-morpholino)propanesulfonic acid) (pH 7.5), 1 mM MgCl2, 0.1 mM EDTA, 200 mM sucrose, 1 mM sodium ortho-vanadate), supplemented with 0.2 mM phenylmethylsulfonyl fluoride, 1 μg/ml leupeptin, 0.1 TIU/ml aprotinin and 1 μg/ml pepstatin. Homogenates were centrifuged at 100,000×g for 20 minutes at 4° C. When checking for the ability of phosphopeptides to block the association with the receptor, cell lysates were pre-incubated with the phosphopeptides for 1 hour at 4° C. prior to incubation with the immobilized recombinant HGF/SF receptor. Following association, immunocomplexes were washed three times with buffer A, twice with buffer D (0.5M LiCl, 100 mM Tris-HCl pH 7.6), and twice with buffer B.
The presence of the p85 subunit of the PI 3-kinase in the receptor immunoprecipitate was determined by: i) labelling of the receptor and associated proteins with [γ-^32 P]ATP by in vitro kinase assay; ii) Western immunoblotting; iii) PI 3-kinase activity assay.
In vitro kinase assay. Receptor-associated proteins were labelled in 20 μl of buffer C, in the presence of 10 μCi [γ-^32 P]ATP (specific activity 7,000 Ci/Mm; Amersham) at 25° C. for 15 minutes. The reaction was stopped by adding 1 ml of ice-cold Buffer A without protease inhibitors. Samples were washed three times with cold buffer A. The labelled immunocomplexes were eluted from Protein A-Sepharose in boiling Laemmli buffer. […]

[2] = target: T2, GST-SH2 domain of Shc (Homo sapiens, UniProt P29353); test: BIAcore binding of Shc SH2 domain to immobilised phosphopeptides; conditions: biosensor; for Affinity constant, ratio between dissociation rate (Kdiss) and association rate constants (Kass): Shc GST-SH2; for Binding of Shc SH2 domain to immobilised phosphopeptide: avidin-immobilized biotinylated phosphopeptide
T2 construct: using the Shc SH2 domain, expressed in bacteria as a GST-fusion protein; made in house; host or cells: bacteria
T2 sequence (P29353 488-579 limits assumed): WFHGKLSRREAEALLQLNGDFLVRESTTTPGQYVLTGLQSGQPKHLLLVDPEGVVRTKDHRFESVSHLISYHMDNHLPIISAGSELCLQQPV
Method: FIG. 13. […] The same concentration of Shc-SH2 was injected over two biosensor surfaces on which two phosphopeptides had been immobilised. Y1356P is derived from the sequence VNATY^1356 VNVK (SEQ. ID NO: 28) of the receptor tail; Y317P is derived from the sequence DDPSY^317 VNVQ (SEQ. ID NO: 27). Note that both peptides contain the same core (YVNV) but (SEQ. ID NO: 3) different upstream sequences. The initial rapid increase in the response is due to the "bulk effect" of the injected solution.
In vitro binding studies using GST-fusion protein. The region of the Grb2 cDNA corresponding to its SH2 domain (from nucleotide position 256 to nucleotide position 551) was isolated using polymerase chain reaction (PCR) and cloned into the BamHI-EcoRI sites of the bacterial expression plasmid pGEX-2T (GST-Grb2). Cultures of bacteria expressing GST, GST-Grb2 or GST-Shc (Segatto et al., Oncogene 2105-2112 (1993)) were grown for 3-4 hours at 37° C. in LB medium containing 1 mM IPTG. Bacteria were centrifuged, resuspended in 1/100 volume of ice-cold PY buffer, without Triton™ and lysed by sonication. After adding Triton X-100 to 1%, lysates were clarified by centrifugation. Recombinant proteins were purified onto glutathione Sepharose™ (Pharmacia) and used as such for binding assays. For each reaction, about 5 μg of GST, GST-Grb2 or GST-Shc bound to glutathione Seharose was incubated for 2 hrs. at 4° C. with […] of appropriate cell lysate made in PY buffer. Protein complexes were washed 5 times in ice cold PY buffer, eluted and denatured by heating at 95° C. for 3 min in Laemmli buffer, resolved on SDS-PAGE and analyzed by immunoblot.
The basic principles of operation as well as the methodology for obtaining kinetic measurements of SH2 domain interactions using the BIAcore instrument (Pharmacia) have been previously described in detail (Panayotou et al., Mol. Cell. Biol. 13: 3567-3576 (1993), Ponzetto et al., Mol. Cell. Biol. 13: 4600-4608 (1993)). Purified GST-SH2 domains or intact proteins were desalted in BIAcore running buffer (20 mM Hepes, pH 7.4, 150 mM NaCl, 3.4 mM EDTA, 0.005% Tween 20 and 4 mM DTT) and injected over avidin-immobilized, biotinylated phosphopeptides. The amount of phosphopeptides immobilized was normalized by measuring the binding of anti-phosphotyrosine antibodies. Association was measured over a range of protein concentrations and dissociation of bound material was allowed to occur either in buffer flow or upon injection of 20 μM competing, non-biotinylated phosphopetide. Peptide and protein concentrations were calculated by amino acid analysis on an Applied Biosystem amino acid analyzer.
The direct interaction between the SH2 domain of Shc and phosphotyrosine Y^1349 or Y^1356 was confirmed by real-time Biosensor analysis (Panayotou et al., ibid; Felder et al., Mol. Cell. Biol. 13: 1449-1455 (1993)).
The Shc sequence Y^317 VNV (SEQ. ID NO: 3) is identical to one of the two Shc binding sites present in the SF/HGF receptor (FIG. 8). […] The biosensor was used to compare binding of the Shc SH2 domain to the phosphopeptide DDPSY^317 VNVQ (SEQ. ID NO: 27), present on the Shc molecule, and to the phosphopeptide VNATY^1356 VNVK (SEQ. ID NO: 28), present on the SF/HGF receptor. […] Thus Shc-Shc association is not favoured in vivo, and the Shc phosphotyrosine residue Y^317 is available to bind other molecules, rather than to mediate the formation of concatamers.

T1 sequence (P23727 whole entry): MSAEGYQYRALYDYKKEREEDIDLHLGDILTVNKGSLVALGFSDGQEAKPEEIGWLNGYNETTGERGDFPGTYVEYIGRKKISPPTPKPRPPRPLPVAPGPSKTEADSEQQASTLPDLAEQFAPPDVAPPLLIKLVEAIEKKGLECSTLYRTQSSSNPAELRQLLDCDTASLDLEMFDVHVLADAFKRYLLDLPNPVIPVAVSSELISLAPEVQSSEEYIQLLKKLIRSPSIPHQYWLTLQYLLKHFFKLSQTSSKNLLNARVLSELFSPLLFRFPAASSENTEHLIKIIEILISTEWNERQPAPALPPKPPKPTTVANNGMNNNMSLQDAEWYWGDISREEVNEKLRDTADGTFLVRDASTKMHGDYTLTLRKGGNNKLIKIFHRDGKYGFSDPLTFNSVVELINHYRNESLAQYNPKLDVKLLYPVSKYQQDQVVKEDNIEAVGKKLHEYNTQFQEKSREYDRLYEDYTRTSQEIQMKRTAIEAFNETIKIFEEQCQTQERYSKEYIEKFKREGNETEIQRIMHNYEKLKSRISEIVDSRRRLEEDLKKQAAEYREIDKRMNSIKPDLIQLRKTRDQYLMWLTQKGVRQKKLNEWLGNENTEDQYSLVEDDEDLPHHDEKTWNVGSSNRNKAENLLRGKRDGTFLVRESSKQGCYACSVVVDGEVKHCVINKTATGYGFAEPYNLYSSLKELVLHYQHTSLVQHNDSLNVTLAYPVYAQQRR

Molecule	Inhibition of binding of p85 to HGF/SF receptor [1]	Affinity constant, ratio between dissociation rate (Kdiss) and association rate constants (Kass) [2]	Binding of Shc SH2 domain to immobilised phosphopeptide [2]	Binding of Shc SH2 domain to immobilised phosphopeptide ([2]; listed as Y1356P)
CC(C)C[C@H](NC(=O)[C@@H]1CCCN1C(=O)[C@H](CC(=O)O)NC(=O)[C@@H]1CCCN1C(=O)[C@H](CS)NC(=O)[C@@H](N)Cc1ccc(OP(=O)(O)O)cc1)C(=O)N[C@@H](Cc1ccc(O)cc1)C(=O)N[C@@H](CCC(=O)O)C(=O)O [H-Tyr*-Cys-Pro-Asp-Pro-Leu-Tyr-Glu-OH] (HELM PEPTIDE1{[N[C@@H](Cc1ccc(OP(=O)(O)O)cc1)C(=O)[*:2]].C.P.D.P.L.Y.E}$$$$V2.0)	only partially effective			
H-Ile-Gly-Glu-His-Tyr*-Val-His-Val-Asn-OH (H-IGEHYVHVN-OH; not fully specified (residue 5); also: Tyr5 (Y*) may be phosphorylated or unphosphorylated, not settled) [IGEHY^1349* VHVN]		too high to be exactly determined		
H-Val-Asn-Ala-Thr-Tyr*-Val-Asn-Val-Lys-OH (H-VNATYVNVK-OH; not fully specified (residue 5); also: Tyr5 (Y*) may be phosphorylated or unphosphorylated, not settled) [VNATY^1356* VNVK]		too high to be exactly determined	specifically bound	binds to the docking site of the SF/HGF receptor

— US5912183A, “Peptide inhibitors of mitogenesis and motogenesis” (Pharmacia & Upjohn S.p.A., priority 1993, dated 1999)
